Tests used:
[1] = biological target: PROTEIN KINASE SU… PROTEIN (AIK1), Prot-A fusion (Arabidopsis thaliana); test: co-IP; LUMIER in HEK293TN cells: Prot-A fusion co-transfected with Renilla luciferase fusion (AN always the luciferase fusion with the interactors); luciferase activity before (input) and after pulldown; percentage pulldown = pulldown/input x 100; empty vectors as negative control; positive if more than two times the background
[2] = biological target: T1, ARGONAUTE1 (AGO1), Prot-A fusion (Arabidopsis thaliana, UniProt O04379 1-1048); test: as above; conditions: partners not purified
T1 construct: ARGONAUTE1, Arabidopsis thaliana, AT1G48410; CDS amplified from Col-0 cDNA; source: HEK293TN cells, transfected; not shown: Protein A (Staphylococcus aureus), N-terminal, kept
T1 sequence (looked up): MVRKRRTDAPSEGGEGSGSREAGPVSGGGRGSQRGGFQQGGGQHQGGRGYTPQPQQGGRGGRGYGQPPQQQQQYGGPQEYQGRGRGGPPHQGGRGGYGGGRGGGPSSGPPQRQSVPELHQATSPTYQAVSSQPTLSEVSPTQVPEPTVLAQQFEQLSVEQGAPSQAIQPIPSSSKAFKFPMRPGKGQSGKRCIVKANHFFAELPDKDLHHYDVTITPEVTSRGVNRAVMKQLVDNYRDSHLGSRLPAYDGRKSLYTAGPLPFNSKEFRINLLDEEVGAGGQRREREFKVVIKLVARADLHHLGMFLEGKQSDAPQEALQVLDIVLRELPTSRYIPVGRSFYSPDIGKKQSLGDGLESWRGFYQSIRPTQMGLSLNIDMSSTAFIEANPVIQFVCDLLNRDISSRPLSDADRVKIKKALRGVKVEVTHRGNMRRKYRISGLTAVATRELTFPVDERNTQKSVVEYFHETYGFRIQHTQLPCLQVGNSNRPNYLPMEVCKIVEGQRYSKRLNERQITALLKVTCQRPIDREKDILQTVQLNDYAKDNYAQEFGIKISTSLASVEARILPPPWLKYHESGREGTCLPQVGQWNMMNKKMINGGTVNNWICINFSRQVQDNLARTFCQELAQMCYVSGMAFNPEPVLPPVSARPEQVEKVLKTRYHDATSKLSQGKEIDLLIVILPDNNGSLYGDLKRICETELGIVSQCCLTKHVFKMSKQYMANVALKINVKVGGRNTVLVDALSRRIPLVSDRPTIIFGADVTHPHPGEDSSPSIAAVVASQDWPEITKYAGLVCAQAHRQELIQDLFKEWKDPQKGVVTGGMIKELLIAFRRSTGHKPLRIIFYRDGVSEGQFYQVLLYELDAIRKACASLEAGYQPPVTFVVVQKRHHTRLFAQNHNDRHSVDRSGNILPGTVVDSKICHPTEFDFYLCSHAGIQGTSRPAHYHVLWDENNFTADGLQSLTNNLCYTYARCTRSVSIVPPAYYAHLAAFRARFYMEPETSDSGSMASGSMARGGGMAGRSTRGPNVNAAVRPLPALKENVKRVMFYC

Chain of PROTEIN KINASE SU… PROTEIN (AIK1), Prot-A fusion (Arabidopsis thaliana) (main, as listed by the source): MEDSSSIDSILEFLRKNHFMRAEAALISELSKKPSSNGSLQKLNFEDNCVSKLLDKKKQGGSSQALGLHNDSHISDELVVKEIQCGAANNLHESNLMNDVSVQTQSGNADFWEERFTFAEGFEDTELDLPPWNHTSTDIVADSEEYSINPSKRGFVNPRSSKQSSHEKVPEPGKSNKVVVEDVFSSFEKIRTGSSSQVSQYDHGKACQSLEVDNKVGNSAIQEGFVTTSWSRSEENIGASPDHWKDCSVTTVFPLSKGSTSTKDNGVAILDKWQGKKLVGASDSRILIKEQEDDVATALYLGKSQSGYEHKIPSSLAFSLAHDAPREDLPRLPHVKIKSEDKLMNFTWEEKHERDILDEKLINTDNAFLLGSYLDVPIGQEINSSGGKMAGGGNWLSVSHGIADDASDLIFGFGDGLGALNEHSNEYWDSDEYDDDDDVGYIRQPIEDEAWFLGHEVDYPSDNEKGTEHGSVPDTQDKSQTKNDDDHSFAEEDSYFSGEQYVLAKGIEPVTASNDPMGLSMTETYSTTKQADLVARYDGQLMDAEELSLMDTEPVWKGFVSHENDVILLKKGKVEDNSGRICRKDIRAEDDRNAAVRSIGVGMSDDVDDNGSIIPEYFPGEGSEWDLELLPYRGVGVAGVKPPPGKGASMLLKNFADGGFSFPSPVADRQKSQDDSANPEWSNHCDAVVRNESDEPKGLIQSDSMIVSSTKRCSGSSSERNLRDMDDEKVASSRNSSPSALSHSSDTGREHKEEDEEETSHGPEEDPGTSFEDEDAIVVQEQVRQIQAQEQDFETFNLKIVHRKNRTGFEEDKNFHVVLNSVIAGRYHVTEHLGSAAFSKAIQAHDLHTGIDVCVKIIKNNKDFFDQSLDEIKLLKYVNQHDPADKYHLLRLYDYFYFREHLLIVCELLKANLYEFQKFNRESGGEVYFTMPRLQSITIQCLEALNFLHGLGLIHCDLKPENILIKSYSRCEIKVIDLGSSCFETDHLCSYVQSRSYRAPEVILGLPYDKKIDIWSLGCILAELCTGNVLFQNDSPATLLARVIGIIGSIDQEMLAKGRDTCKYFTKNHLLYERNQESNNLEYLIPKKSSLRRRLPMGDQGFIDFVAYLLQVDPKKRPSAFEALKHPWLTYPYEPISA

fold change from background [1]: 223 fold | percentage pulldown [1]: 36% | fold change from background [2]: 5.02 fold | percentage pulldown [2]: 0.47%
B1: AN, Renilla luciferase fusion (LUMIER) (natural protein, Arabidopsis thaliana, UniProt O23702 1-636, looked up)
chain: MSKIRSSATMPHRDQPSPASPHVVTLNCIEDCALEQDSLAGVAGVEYVPLSRIADGKIESATAVLLHSLAYLPRAAQRRLRPHQLILCLGSADRAVDSTLAADLGLRLVHVDTSRAEEIADTVMALILGLLRRTHLLSRHALSASGWLGSLQPLCRGMRRCRGMVLGIVGRSVSARYLASRSLAFKMSVLYFDVPEGDEERIRPSRFPRAARRMDTLNDLLAASDVISLHCALTNDTVQILNAECLQHIKPGAFLVNTGSCQLLDDCAVKQLLIDGTIAGCALDGAEGPQWMEAWVKEMPNVLILPRSADYSEEVWMEIREKAISILHSFFLDGVIPSNTVSDEEVEESEASEEEEQSPSKHEKLAIVESTSRQQGESTLTSTEIVRREASELKESLSPGQQHVSQNTAVKPEGRRSRSGKKAKKRHSQQKYMQKTDGSSGLNEESTSRRDDIAMSDTEEVLSSSSRCASPEDSRSRKTPLEVMQESSPNQLVMSSKKFIGKSSELLKDGYVVALYAKDLSGLHVSRQRTKNGGWFLDTLSNVSKRDPAAQFIIAYRNKDTVGLRSFAAGGKLLQINRRMEFVFASHSFDVWESWSLEGSLDECRLVNCRNSSAVLDVRVEILAMVGDDGITRWID
notes: ANGUSTIFOLIA (AN), Arabidopsis thaliana, AT1G01510; CDS amplified from Col-0 cDNA; in the dimerisation test the second copy must have been the N-terminal protein A fusion (surmised from the LUMIER format); also called wild-type AN; source: HEK293TN cells, transfected; not shown: Renilla reniformis luciferase, N-terminal, kept
